± gives the uncertainty stated by the source.
Assay: amyloid nucleation score (Sup35N fusion, yeast selection) (log enrichment); library NNK3; higher = more nucleation; inactive = no reads after selection
How it was run: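 Libraries of peptides of 20 random codons fused to Sup35N were expressed in psi-negative yeast and induced 24 hours with 100 μM copper sulfate. Selection was 7 days at 30°C on medium lacking adenine and uracil, and plasmid inserts were Illumina-sequenced before and after selection. Nucleation score is the DiMSum log enrichment of output over input reads, centred on the mode score of non-aggregating sequences, and sequences with under 100 input reads were left out.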

Substance | amyloid nucleation score
PTAESPLMPFNA | -0.478 ± 0.69
SRNMLH | inactive
RMGLTEMWHVIPSITSRQYL | inactive
SSVGMARAYL | -1.17 ± 1.9
NWIYYTMWSL | 0.581 ± 0.17
AFVGRWYCGFVASVIFEMQG | 0.069 ± 0.47
PCPFILFYSEFTWSRY | inactive
NLGYALICQSRVGGTFLVNS | inactive
RCIMRYCAKALCKVICSQWL | inactive
VQIRAANLTYNRQCQSHLFS | inactive
WFVSSWKNSHLKCGL | inactive
DVGTCSLLNGHKYFFRFNVV | inactive
MNEKENMMNTQWIVCNTCAK | inactive
FRKTRIALFLPLTLDF | inactive
FWFLYSSRAQRRRRHWI | inactive
MNFPR | inactive
SHIVFM | inactive
FLCLMTTKTKCNF | inactive
GQKDCYFLIMYIREVLNRYT | inactive
RVSGEMFASSL | inactive
HYILLG | inactive
YSKEWVFISIIQKLADGQCN | -0.182 ± 0.66
GIKKTREPNCLVCIDIWIFI | 1.33 ± 0.07

Substance | amyloid nucleation score
IIRSGGNGLCSTKYLSSHFL | inactive
PWCVKIHRWVLYWSYKLSIS | inactive
VTMFFLFHMQLYFSSKILGF | inactive
LSWDVYSRHFG | 2.31 ± 0.076
VKEPMVPITLLSSTSSLDGM | inactive
TVTSSFATLNQVYGPHVFVN | inactive
FSALWTRHKWNFPRMTTFAR | inactive
TFSPVGMISLYCYGT | -0.065 ± 0.45
TNTSFTIVSYTSYR | 0.696 ± 0.27
FGVFGEIDIYCGW | inactive
YSNRVGNAYMGSLKTSWHVM | inactive
HDSQMWYLSIIESYLVQYLM | inactive
YRDRFAKSSYKSPKMYQYGS | inactive
LRDMTGILPRGRFADETSRF | inactive
LSIIRKVADRGDPSDLYKMV | inactive
GISILLSSYPRMCLLRLVGL | inactive
GQEGSRN | 0.186 ± 0.53
LFTACNLKIDVLLSTRSFAL | 1.6 ± 0.079
SILYD | inactive
ESRMDRCCPSFGMCSLRYQK | inactive
TYCERKFTTSGTSYTSQKYF | inactive
WWRDGDIRCKTSLNLGKRSF | inactive
DSLTDVMTWELWDIYHVKHE | inactive

Substance | amyloid nucleation score
GVITISREDQYLAVGVIQWI | inactive
VNVDLPLARNHWYPSPIYMV | -0.654 ± 0.84
ALNIPVTRGTTPAWFLILLD | inactive
YVCGKF | inactive
FDTFTMTEDSNPEKSECGLK | inactive
ALSDDTDTQAANQLHGCTGW | inactive
FLMHSKVTSCGVWSLYFADV | 1.44 ± 0.15
QKHISY | inactive
SRYLLADSFFRASAVWDVSE | inactive
VGRPTASGLRNCMWSLSWCV | inactive
CRSAVKMGVPLRILLMY | inactive
LSNFITTLSTWITLSI | inactive
RDCTMYNTYFIWNIYPG | 3.42 ± 0.07
TRGLWYQHVDHSTFRLKEST | inactive
AIRLYLDGIHQMHYYHTLCL | inactive
AVVSIVVLRDKRTFLGRLYL | 1.53 ± 0.087
GRCFKFCNLDT | inactive
RLDGSMSGCFSTFWNWNIVR | inactive
LNPLPQRLYSPCSLKFCNDG | inactive
SSNESGLSFGSEFHMLGWHG | 0.075 ± 0.35
WGSRHKIVCELGLPFYVLEG | inactive
VTGEYLRMAISGCRG | inactive
SNYICTYIQKFSIVYCIPSH | 1.96 ± 0.08

Substance | amyloid nucleation score
SSKFRRLLGVIMMADLMQVY | inactive
SLLFRSLIWSTFDPCSELGP | inactive
CLCVTAGYISNTGGHRSWII | inactive
TISLHFLGTADKPYLSWVAN | inactive
ALNSLYTFMDRNNRELECGL | -0.688 ± 0.88
PIAHFM | inactive
LVKRCVVGFTHFPTIYTCIQ | inactive
GFIGECFFDHMGITFVLIET | inactive
LPKCGPRYFDWLNAPEDCMF | inactive
DMIKCGLSPDRVFIWYWPNK | inactive
VKFIYRLEQNEDSAQNSRMG | inactive
SDLSCSELEYSHGTNTDWVR | inactive
TMCHGDDLRNHCYSETNSFR | inactive
NSHLSKNGQWIPLSAPATTT | inactive
ISLGVMCYYVPIPGCECTNI | inactive
LMKSMSNLLYADLKEYSQVG | inactive
MLELLTFTDFLGTTDITRNS | -0.113 ± 0.39
WRFQQQAFRYNWPWVILLLV | inactive
RVRRGSHCNTFKKSLRLRCA | inactive
GNWQCFTEGRTPCYFCCITT | inactive
RSRET | inactive
TYQVILSFYDLWFGRSAYCQ | inactive
NFTMNLIIGCF | 1.3 ± 0.12

Substance | amyloid nucleation score
LLRKRHVLNTK | inactive
RWAELTEQTCS | inactive
CQFFQFDLNYEFKLVSRAHK | inactive
VFTSGLCEKS | 0.195 ± 0.72
ASRAESVVGSFFCFFL | 2.17 ± 0.087
SCFCMKLSLFYGAIN | 0.675 ± 0.51
KYLVALVRVRQSNLHS | inactive
HSSIVWKRYSIYFVKNGGTF | inactive
NLVCQLLGRQRDPINPVVCW | inactive
VHGIRSELDRYLMNTNSTEL | inactive
ECATTVGNAFRRSGVQVFAM | inactive
IRNERRQGSCGIIISRNCYV | inactive
LIVLVMHKLYKLWSGRLRVV | inactive
TFYVLGLDYTWLSATSGDGS | inactive
YLSGIPTVVIHVIFGMKDW | inactive
SVEMIPDSGLSVRMGFEGLV | inactive
MWFHLSYMAIFNGVSMQDVC | inactive
RLLMKV | inactive
APDQLF | inactive
VERKNVLFRYHAVGFVLGDV | inactive
WMRVSCDTRGYSSFQAY | -0.538 ± 0.75
IFNQLDLFCDRTLDGLRDAK | inactive
LVASSYS | inactive

Substance | amyloid nucleation score
LGIIH | inactive
GFTRKFSFYKRHQSVWITRR | inactive
WENCKFWRTLPISVHEGHLD | inactive
KCMCNLRSMFASCLYTCVVI | inactive
LLVWNLMTRFYYF | inactive
NWYDSWRVFAQNKDCSLWA | inactive
TKYCSLPHDQDCVHKFITTV | inactive
IDLVVSQVWQSTGAVVALWH | -0.301 ± 0.83
ICRLGLLFIMTLRYYNVFVR | inactive
YLDKRYVVGVFMLDSNLDLS | inactive
CDVQKSLGCHTCWGRDWWNR | inactive
TSGDMRAVYGLYREIRLVNT | inactive
RLNGRDHL | inactive
CCKSVKFKSLPARN | 0.725 ± 0.24
VCLFICLNDDFLIRRPDCLS | 2.08 ± 0.051
LTSGVNRISQQPWLSLVDIG | inactive
IWRLLGSWVSVTMDIYHWSS | inactive
CFAIYSLLYRVR | 1.55 ± 0.074
EMCSA | inactive
HQWYG | inactive
CLGFSL | inactive
MRYLDLYGRARNVRIRVRRT | inactive
QFNMKVFMHDWWRLLLPKSK | inactive

Substance | amyloid nucleation score
MWDIGGARAKDCEGLSVNCI | inactive
GSLIMSLAR | inactive
SPWLSAHRSNTGVRTLSLEV | inactive
SFCFSNDVA | inactive
LRARPLLITFGVEWGSASDP | 0.465 ± 0.22
KSLHTGGGLDSRYGS | inactive
GEHSGRYYSNVSKNESMGVI | inactive
RNSSYYLMASVDCVRFH | inactive
DDTRYHAHTSNLGRITHRIQ | inactive
SAIYLYKYCPSNIITRTLVP | inactive
LNPVRSYSKNNIYLLTMLAL | inactive
SQFLLGSQ | inactive
EEMVSDRVRMLVTINHR | 0.661 ± 0.27
SSLETLSSLFLIRLMELVSR | inactive
AAYGELL | inactive
ALFLIFSRELHSNDNLLECS | 0.367 ± 0.14
LKVSAFAYDKFLQRYMTVVT | inactive
TKTISGHCPVLMSVFWSMAL | inactive
FLAFSMEYCYVPHFWKVSLS | 0.311 ± 0.25

Source: the supplement of paper PMC12042874
